Test results published in patent US20120316071A1 (published 2012).

T1: rHuman Erythropoietin R/Fc Chimera, CF (R&D Systems Cat#963-ER) (human, UniProt P19235 25-250)
T1 construct: Bought reagent; also called EPO R/Fc; Epo R
T1 sequence (looked up): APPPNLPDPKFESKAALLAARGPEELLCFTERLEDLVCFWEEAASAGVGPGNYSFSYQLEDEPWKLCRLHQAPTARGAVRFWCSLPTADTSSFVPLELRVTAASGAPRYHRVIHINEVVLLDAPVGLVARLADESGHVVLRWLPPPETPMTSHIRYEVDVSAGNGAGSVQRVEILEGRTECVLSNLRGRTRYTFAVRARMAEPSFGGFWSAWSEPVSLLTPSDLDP


Columns and labels:
[1] = target: T2, Recombinant Human DLL4 (R&D Systems Cat#1506-D4/CF) (human, UniProt Q9NR61 27-524); test: MSD multispot ECL, antigen spotted, Fab 2.3 nM; blank spot 234
T2 construct: Bought recombinant protein; also called rHuman DLL4; delta-like protein 4

[2] = target: T3, rHuman ErbB2/Fc Chimera, CF (R&D Systems Cat#1129-ER) (human, UniProt P04626 23-652); test: as above
T3 construct: Bought reagent; also called human epidermal growth factor 2 receptor

[3] = target: T4, rHuman EGF R/Fc Chimera, CF (R&D Systems Cat#344-ER) (human, UniProt P00533 25-645); test: as above
T4 construct: Bought reagent; also called epidermal growth factor receptor

[4] = target: T5, rHuman HGF R/c-MET/Fc Chimera, CF (R&D Systems Cat#358-MT/CF) (human, UniProt P08581 25-932); test: as above
T5 construct: Bought reagent; also called HGF R/Fc; hepatocyte growth factor receptor

[5] = target: T6, rHuman Notch-1/Fc Chimera, CF (R&D Systems Cat#3647-TK) (human, UniProt P46531 19-526); test: as above
T6 construct: Bought reagent

[6] = target: T7, rHuman CD44/Fc Chimera, CF (R&D Systems Cat#3660-CD) (human, UniProt P16070 21-220); test: as above
T7 construct: Bought reagent

[7] = target: T8, rHuman IGF-1 sR, (IGF-1 sR), CF (R&D Systems Cat#391-GR) (human, UniProt P08069 31-932); test: as above
T8 construct: Bought soluble receptor; also called insulin-like growth factor-1 soluble receptor

[8] = target: T1, rHuman Erythropoietin R/Fc Chimera, CF …; test: as above
[9] = target: T3, rHuman ErbB2/Fc Chimera, CF (R&D …); test: MSD multispot ECL, antigen spotted, Fab 2383 nM; blank spot 344
[10] = target: T4, rHuman EGF R/Fc Chimera, CF (R&D …); test: as above
[11] = target: T5, rHuman HGF R/c-MET/Fc Chimera, CF (R&D …); test: as above
[12] = target: T9, Recombinant Human DLL4 (R&D Systems Cat#1506-D4/CF) (human, UniProt Q9NR61 27-524); test: MSD multispot ECL, antigen spotted on plate, Fab 705 nM; blank spot 483
T9 construct: Bought from R&D Systems; also called rHuman DLL4; delta-like protein 4

[13] = target: T10, rHuman ErbB2/Fc Chimera, CF (R&D Systems Cat#1129-ER) (human, UniProt P04626 23-652); test: as above
T10 construct: Bought from R&D Systems; also called human epidermal growth factor 2 receptor (ErbB2); not shown: Fc of the bought chimera

[14] = target: T11, rHuman EGF R/Fc Chimera, CF (R&D Systems Cat#344-ER) (human, UniProt P00533 25-645); test: as above
T11 construct: Bought from R&D Systems; also called epidermal growth factor receptor (EGF R); not shown: Fc of the bought chimera

[15] = target: T12, rHuman HGF R/c-MET/Fc Chimera, CF (R&D Systems Cat#358-MT/CF) (human, UniProt P08581 25-932); test: as above
T12 construct: Bought from R&D Systems; also called HGF R/Fc; hepatocyte growth factor receptor (HGF R/c-Met); not shown: Fc of the bought chimera

[16] = target: T13, rHuman Notch-1/Fc Chimera, CF (R&D Systems Cat#3647-TK) (human, UniProt P46531 19-526); test: as above
T13 construct: Bought from R&D Systems; not shown: Fc of the bought chimera

[17] = target: T14, rHuman CD44/Fc Chimera, CF (R&D Systems Cat#3660-CD) (human, UniProt P16070 21-220); test: as above
T14 construct: Bought from R&D Systems; not shown: Fc of the bought chimera

[18] = target: T15, rHuman IGF-1 sR, (IGF-1 sR), CF (R&D Systems Cat#391-GR) (human, UniProt P08069 31-932); test: as above
T15 construct: Bought from R&D Systems and called a soluble receptor; also called insulin-like growth factor-1 soluble receptor

[19] = target: T16, rHuman P-Cadherin/Fc Chimera, CF (R&D Systems Cat#861-PC) (human, UniProt P22223 108-654); test: as above
T16 construct: Bought from R&D Systems; not shown: Fc of the bought chimera

| ECL signal [1] [ECL signal] | ECL signal [2] [ECL signal] | ECL signal [3] [ECL signal] | ECL signal [4] [ECL signal] | ECL signal [5] [ECL signal] | ECL signal [6] [ECL signal] | ECL signal [7] [ECL signal] | ECL signal [8] [ECL signal] | ECL signal [9] [ECL signal] | ECL signal [10] [ECL signal] | ECL signal [11] [ECL signal] | ECL signal [12] | ECL signal [13] | ECL signal [14] | ECL signal [15] | ECL signal [16] | ECL signal [17] | ECL signal [18] | ECL signal [19] | Binder |
| --- | --- | --- | --- | --- | --- | --- | --- | --- | --- | --- | --- | --- | --- | --- | --- | --- | --- | --- | --- |
| 3060 | 291 | 289 | 253 | 333 | 317 | 231 | 429 | 454 | 621 | 762 |  |  |  |  |  |  |  |  | Fab VH1-46_IGHD6-6*01_IGHJ1*01 & L6_IGKJ1*01 (Fab, V domains shown, Only variable domains are tied to the molecule; Tested as a Fab made in E. coli: heavy chain from Plasmid A (CH1 constant region, His6 and Flag tags), kappa light chain from Plasmid C (kappa CL); also called parent Hit Fab against DLL4; VH1-46_IGHD6-6*01_IGHJ1*01 & L6_IGKJ1*01 (parental)) VH: QVQLVQSGAEVKKPGASVKVSCKASGYTFTSYYMHWVRQAPGQGLEWMGIINPSGGSTSYAQKFQGRVTMTRDTSTSTVYMELSSLRSEDTAVYYCAREEYSSSSAEYFQHWGQGTLVTVSS VL: not shown |
|  |  |  |  |  |  |  |  |  |  |  | 981 | 671 | 692 | 839 | 958 | 693 | 630 | 827 | Fab VH1-46_IGHD3-10*01_IGHJ4*01 & B3_IGKJ1*01 (Fab, V domains shown, Tested as a Fab made in E. coli; VH was cloned into Plasmid A (CH1 constant region, His6 and Flag tags); The kappa VL was cloned into Plasmid C (kappa CL)) VH: QVQLVQSGAEVKKPGASVKVSCKASGYTFTSYYMHWVRQAPGQGLEWMGIINPSGGSTSYAQKFQGRVTMTRDTSTSTVYMELSSLRSEDTAVYYCAREYYYGSGSYYNDYFDYWGQGTLVTVSS VL: not shown |
